Source: US20150065381A1
Where “and” joins values, the source holds several entries; their conditions need not be identical. Equal entries are not always repeated.

Columns and labels:
[1] = molecular target: BG505 envelope (gp120 monomer released from lysed pseudovirus) (HIV-1); assay: antigen capture ELISA, mAb 0.3 ug/ml, plate 2
[2] = molecular target: aMLV envelope (from lysed pseudovirus); assay: antigen capture ELISA, mAb 0.3 ug/ml, plate 2
[3] = molecular target: HIV-1 envelope of gp160 clone AG-010.c14 (HIV-1); assay: capture ELISA, plate 2, mAb 0.8 ug/ml
[4] = molecular target: HIV-1 envelope of gp160 clone B-Acute-009-c08 (HIV-1); assay: capture ELISA, plate 2, mAb 0.8 ug/ml
[5] = molecular target: HIV-1 envelope clone BF-002.c08 (multiclade gp160 clone panel) (HIV-1); assay: capture ELISA, plate 2, mAb 0.8 ug/ml
[6] = molecular target: HIV-1 envelope of gp160 clone B-Acute-010.c08 (HIV-1); assay: capture ELISA, plate 2, mAb 0.8 ug/ml
[7] = molecular target: HIV-1 envelope clone G-011.c02 (multiclade gp160 clone panel) (HIV-1); assay: capture ELISA, plate 2, mAb 0.8 ug/ml
[8] = molecular target: HIV-1 JRCSF envelope (HIV-1) (UniProt P20871); assay: capture ELISA, plate 2, mAb 0.8 ug/ml
[9] = molecular target: HIV-1 envelope of gp160 clone B-Acute-008.c11 (HIV-1); assay: capture ELISA, plate 2, mAb 0.8 ug/ml
[10] = molecular target: HIV-1 envelope clone F1-002.c16 (multiclade gp160 clone panel) (HIV-1); assay: capture ELISA, plate 2, mAb 0.8 ug/ml
[11] = molecular target: HIV-1 envelope of gp160 clone B-Acute-010.c09 (HIV-1); assay: capture ELISA, plate 2, mAb 0.8 ug/ml
[12] = molecular target: HIV-1 envelope clone F1-002.c11 (multiclade gp160 clone panel) (HIV-1); assay: capture ELISA, plate 2, mAb 0.8 ug/ml
[13] = molecular target: HIV-1 envelope clone G-011.c05 (multiclade gp160 clone panel) (HIV-1); assay: capture ELISA, plate 2, mAb 0.8 ug/ml
[14] = molecular target: HIV-1 envelope of gp160 clone AG-010.c11 (HIV-1); assay: capture ELISA, plate 2, mAb 0.8 ug/ml
[15] = molecular target: HIV-1 envelope of gp160 clone B-Chronic-014.c02 (HIV-1); assay: capture ELISA, plate 2, mAb 0.8 ug/ml
[16] = molecular target: HIV-1 envelope clone BF-002.c05 (multiclade gp160 clone panel) (HIV-1); assay: capture ELISA, plate 2, mAb 0.8 ug/ml
[17] = molecular target: BG505 envelope (gp120 monomer released from lysed pseudovirus) (HIV-1); assay: antigen capture ELISA, mAb 7.5 ug/ml, plate 2
[18] = molecular target: aMLV envelope (from lysed pseudovirus); assay: antigen capture ELISA, mAb 7.5 ug/ml, plate 2
[19] = molecular target: BG505 envelope (gp120 monomer released from lysed pseudovirus) (HIV-1); assay: antigen capture ELISA, mAb 2.5 ug/ml, plate 1
[20] = molecular target: aMLV envelope (from lysed pseudovirus); assay: antigen capture ELISA, mAb 2.5 ug/ml, plate 1
[21] = molecular target: BG505 envelope (gp120 monomer released from lysed pseudovirus) (HIV-1); assay: antigen capture ELISA, mAb 0.8 ug/ml, plate 1
[22] = molecular target: aMLV envelope (from lysed pseudovirus); assay: antigen capture ELISA, mAb 0.8 ug/ml, plate 1
[23] = molecular target: BG505 envelope (gp120 monomer released from lysed pseudovirus) (HIV-1); assay: antigen capture ELISA, mAb 0.3 ug/ml, plate 1
[24] = molecular target: aMLV envelope (from lysed pseudovirus); assay: antigen capture ELISA, mAb 0.3 ug/ml, plate 1
[25] = molecular target: HIV-1 envelope of gp160 clone AG-010.c14 (HIV-1); assay: cell-based or functional assay
[26] = molecular target: HIV-1 envelope of gp160 clone B-Acute-009-c08 (HIV-1); assay: cell-based or functional assay
[27] = molecular target: HIV-1 envelope of gp160 clone B-Acute-010.c08 (HIV-1); assay: cell-based or functional assay
[28] = molecular target: HIV-1 envelope clone G-011.c02 (multiclade gp160 clone panel) (HIV-1); assay: cell-based or functional assay
[29] = molecular target: HIV-1 JRCSF envelope (HIV-1) (UniProt P20871); assay: cell-based or functional assay
[30] = molecular target: HIV-1 envelope of gp160 clone B-Acute-008.c11 (HIV-1); assay: cell-based or functional assay
[31] = molecular target: HIV-1 envelope of gp160 clone B-Acute-010.c09 (HIV-1); assay: cell-based or functional assay
[32] = molecular target: HIV-1 envelope clone G-011.c05 (multiclade gp160 clone panel) (HIV-1); assay: cell-based or functional assay
[33] = molecular target: HIV-1 envelope of gp160 clone AG-010.c11 (HIV-1); assay: cell-based or functional assay
[34] = molecular target: HIV-1 envelope of gp160 clone B-Chronic-014.c02 (HIV-1); assay: cell-based or functional assay
[35] = molecular target: HIV-1 envelope of gp160 clone AG-010.c14 (HIV-1); assay: capture ELISA, original data
[36] = molecular target: HIV-1 envelope clone G-011.c02 (multiclade gp160 clone panel) (HIV-1); assay: capture ELISA, original data
[37] = molecular target: HIV-1 envelope of gp160 clone B-Acute-010.c09 (HIV-1); assay: capture ELISA, original data
[38] = molecular target: HIV-1 envelope of gp160 clone AG-010.c11 (HIV-1); assay: capture ELISA, original data
[39] = molecular target: HIV-1 16055 envelope (HIV-1); assay: capture ELISA, plate 2, mAb 0.8 ug/ml
[40] = molecular target: HIV-1 JRFL envelope (HIV-1); assay: capture ELISA, plate 2, mAb 0.8 ug/ml
[41] = molecular target: HIV-1 JRFL envelope (HIV-1); assay: capture ELISA, plate 1, mAb 0.8 ug/ml

## PGV04 (antibody)
[1]
  ELISA OD: 0.45 OD
[2]
  ELISA OD: 0.095 OD and 0.115 OD
[3]
  ELISA OD: 0.169 OD
[4]
  ELISA OD: 0.095 OD
[5]
  ELISA OD: 1.37 OD
[6]
  ELISA OD: 0.659 OD
[7]
  ELISA OD: 0.326 OD
[8]
  ELISA OD: 1.03 OD and 1.35 OD
[9]
  ELISA OD: 0.094 OD
[10]
  ELISA OD: 0.139 OD
[11]
  ELISA OD: 0.913 OD
[12]
  ELISA OD: 0.084 OD
[13]
  ELISA OD: 0.168 OD
[14]
  ELISA OD: 0.103 OD
[15]
  ELISA OD: 3.37 OD
[16]
  ELISA OD: 2.07 OD
[17]
  ELISA OD: 1.37 OD
[18]
  ELISA OD: 0.123 OD
[19]
  ELISA OD: 1.04 OD
[20]
  ELISA OD: 0.056 OD and 0.073 OD
[21]
  ELISA OD: 0.745 OD
[22]
  ELISA OD: 0.053 OD and 0.117 OD
[23]
  ELISA OD: 0.45 OD
[24]
  ELISA OD: 0.052 OD and 0.057 OD

## PG16 (antibody)
[1]
  ELISA OD: 0.067 OD
[2]
  ELISA OD: 0.096 OD and 0.103 OD
[3]
  ELISA OD: 0.51 OD
[4]
  ELISA OD: 0.058 OD
[5]
  ELISA OD: 0.103 OD
[6]
  ELISA OD: 0.132 OD
[7]
  ELISA OD: 0.062 OD
[8]
  ELISA OD: 0.135 OD and 0.136 OD
[9]
  ELISA OD: 0.146 OD
[10]
  ELISA OD: 0.302 OD
[11]
  ELISA OD: 0.105 OD
[12]
  ELISA OD: 0.12 OD
[13]
  ELISA OD: 0.097 OD
[14]
  ELISA OD: 0.173 OD
[15]
  ELISA OD: 0.318 OD
[16]
  ELISA OD: 0.586 OD
[17]
  ELISA OD: 0.12 OD
[18]
  ELISA OD: 0.102 OD and 0.081 OD
[19]
  ELISA OD: 0.103 OD
[20]
  ELISA OD: 0.063 OD and 0.072 OD
[25]
  PG16: 0.007 µg/mL
[26]
  PG16: 0.202 µg/mL
[27]
  PG16: 0.015 µg/mL
[28]
  PG16: > 50 µg/mL
[29]
  PG16: 0 µg/mL
[30]
  PG16: 5.3 µg/mL
[31]
  PG16: 1.21 µg/mL
[32]
  PG16: 0.024 µg/mL
[33]
  PG16: 0.031 µg/mL
[34]
  PG16: 0.037 µg/mL
[21]
  ELISA OD: 0.165 OD
[22]
  ELISA OD: 0.073 OD and 0.056 OD
[23]
  ELISA OD: 0.067 OD
[24]
  ELISA OD: 0.053 OD and 0.096 OD

## PGT145 (antibody)
[1]
  ELISA OD: 0.066 OD
[2]
  ELISA OD: 0.065 OD and 0.157 OD
[35]
  ELISA OD: 0.081 OD
[36]
  ELISA OD (original data): 0.077 OD
[37]
  ELISA OD: 0.075 OD
[38]
  ELISA OD: 0.101 OD
[3]
  ELISA OD: 0.074 OD
[4]
  ELISA OD: 0.178 OD
[39]
  ELISA OD: 0.067 OD and 0.064 OD
[5]
  ELISA OD: 0.057 OD
[6]
  ELISA OD: 0.125 OD
[7]
  ELISA OD: 0.071 OD
[8]
  ELISA OD: 0.087 OD and 0.063 OD
[9]
  ELISA OD: 0.095 OD
[40]
  ELISA OD: 0.062 OD and 0.054 OD
[10]
  ELISA OD: 0.375 OD
[11]
  ELISA OD: 0.065 OD
[12]
  ELISA OD: 0.067 OD
[13]
  ELISA OD: 0.096 OD
[14]
  ELISA OD: 0.074 OD
[15]
  ELISA OD: 0.059 OD
[16]
  ELISA OD: 0.192 OD
[41]
  ELISA OD: 0.057 OD and 0.051 OD
[17]
  ELISA OD: 0.104 OD
[18]
  ELISA OD: 0.108 OD and 0.079 OD
[19]
  ELISA OD: 0.077 OD
[20]
  ELISA OD: 0.062 OD and 0.068 OD
[25]
  PGT145 IC50: > 50 µg/mL
[26]
  PGT145 IC50: 0.007 µg/mL
[27]
  PGT145 IC50: 0.032 µg/mL
[28]
  PGT145 IC50: 1.8 µg/mL
[29]
  PGT145 IC50: 0.003 µg/mL
[30]
  PGT145 IC50: 8.2 µg/mL
[31]
  PGT145 IC50: 0.294 µg/mL
[32]
  PGT145 IC50: 0.115 µg/mL
[33]
  PGT145 IC50: 8.27 µg/mL
[34]
  PGT145 IC50: 2.22 µg/mL
[21]
  ELISA OD: 0.066 OD
[22]
  ELISA OD: 0.056 OD and 0.073 OD
[23]
  ELISA OD: 0.066 OD
[24]
  ELISA OD: 0.057 OD and 0.116 OD
